Test results taken from the DeepSol protein solubility set.

Test: soluble on expression in E. coli; label from the status in PepcDB or PDB records

Sequence	soluble on expression in E. coli
MGSDKIHHHHHHMRIDLSLKPTPVQFLKRLSEKYGFNIYVKRDDLTELVGSGNKIRKLEYLLWEALKKGATTVFTCGGLQSNHARATAYVSRRYGLKPVLFLRKGEKVLNGNLLLDILLGAEIVEVSPEEYERIDEIFDVHKKMREKKGEKVYVIPEGGSNSLGAFGYFNAVLEMKDQLNLESFDAIVCAVGSGGTIAGLSAGISFLEYHVPVVGVNVTTKNSDYFVGKVKRIISGMEEYGLRVNETVFEVVDDYRGPGYAIPSSEDVEILKEVASIEGIILDPVYTAKAFRGMIEMFRNSEKNVLFIHTGGIFGLFAQSRRLV	not soluble
MGSDKIHHHHHHMRILEINTEKGWRGGENQTLLALIGFRKLGHEAELLCFENSALHVQAAAAGFTCHPLTSSTKSIGFLMEYGKNYSILHTQTSKQLTYCILTKPFHNSKVILSRRVDFVPKGFFTLLKYNACDGIICVSGAIEKILKQSGIKTRTVVISDCVTEKTLNKTRAQELLQKLTISGKNIIGTTAALVPHKDPVTLVNAVNILRTKRSDFVLLHFGSGPLAATIQQFITDNNLQDYYKLIGFKERVEDYFSIFNYFVMSSQEEGLGSSVLDAFVYKVPVVSTNAGGLNELVTGRGYVTEKKNAQLLAEALHTAMNSPEQNKKNVAAGYTYAVSNLSVEKIHEEHIDFFKTV	not soluble
MGSDKIHHHHHHMRILFYCDTVFSFGGVQRVLAEIAKALSGKHEVTILTTDTCTDLSMYGYAESTVRFDSFSYSASSFIERLLCKGYSFLYKHGLPHTRLTSEWYAASFFPSSYKRTLARKINARQCDVVIGVHAFMALHLSAVKSRIRTKTVGWLHNSYEAFFEKETPYLPGLDCFFQVQMGKLDERVVLSHADAGCFFRKMNLCCEVIYNPLTVLPKGRGKKEYRRILAVGRFSFGHKGFDILIKAFSVFVKTHPDWTLEIVGEGPEEALYRSLINEYELEKSIALHPFTKEVQEYYAHSSMYVLSSRWEGFGLVMIEAMAHGLPVIASDLPITRELLKDKDMAVLFETGNIAQLAGCMSYMADRTDWEWMGNKAVEYADTFHIEKVCDSWNNLLKKVVYGTR	not soluble
MGSDKIHHHHHHMRISLGPLVYCWQKQQVMAFYQQVAASQIPLVYLGEAVCSRRRELKWGDYFELARMLKQAGKEVVISTLALIEASSEYTELKRQVDNGEFMIEANDMAAVYLAKEHKLPFVCGASINNYNRASLDILHGFGMQRFVMPVELSKAWLQHVIQNKPAFEVEVFGHGYLPLAHSARCFTARHKQLTKDSCETICRQYSKGLLAQTQEMQPLLRLNGIQTQSAACLDLSSEIAAMNTMGVDVFRVSPSGTESIVRAESLIEALNMPEMALNAPIKGEQCDGYWFGEAGLTIHHAT	not soluble
MGSDKIHHHHHHMRKAGESMKEFISLKIDYAFKLIFGKEGNEAILIAFLNAALKLPQERRIEAITIMNPELNKEYQGDKKSILDVRAETSEGMQINIEIQLSNQYDMEKRSLYYWAEMYSRQIREGMAYKELAKAVTINILDFNYLKQTSNYHNVFHLYEDEEKFQLTDALEMHFMELPKLLAKWRNREISPWENELVRWLLLLEGADNQEILQTLEEIAMKDPVLHQAMTAWEETSDDPRIREAYFDRRKAVLDEKAAIREAELRLKEALEKGRAAGIAAGKAEGKAEVAKKLLDLGFEITKVAEATGLSEKDIRSLKD	not soluble
MGSDKIHHHHHHMRKIKLIIFPGYYIPHIGGLETHVDEFTKHLSEDENYDIYIFAPNIPKYKEFEIRHNNVKVYRYPAFEIIPNYPVPNIFNIKFWRMFFNLYKIDFDIVMTRTRFFSNTLLGFIFAKLRFKKKKLIHVEHGSAFVKLESEFKNKLSYFYDKTIGKLIFKKADYVVAISKAVKNFILENFVNDKDIPIIYRGLEIEKIESIGEDKKIKEKFKNKIKLCFVGRLYKWKGVENIIKAYVDLPKDLKEKIILIVVGYGEDLERLKKLAGNYLNNGIYFTGKVDFEKAIAIVKASDIYIHSSYKGGGLSSSLLQAMCCGKAIVASPYEGADEVVIDGYNGILLKDNSPEEIKRGIIKLIENNNLRKIYGENAKNFIKENFNWKKSVKEYKKIFERLVN	not soluble
MGSDKIHHHHHHMRKLAHNFYKPLAIGAPEPIRELPVRPERVVHFFPPHVEKIRARIPEVAKQVDVLCGNLEDAIPMDAKEAARNGFIEVVKATDFGDTALWVRVNALNSPWVLDDIAEIVAAVGNKLDVIMIPKVEGPWDIHFVDQYLALLEARHQIKKPILIHALLETAQGMVNLEEIAGASPRMHGFSLGPADLAASRGMKTTRVGGGHPFYGVLADPQEGQAERPFYQQDLWHYTIARMVDVAVAHGLRAFYGPFGDIKDEAACEAQFRNAFLLGCTGAWSLAPNQIPIAKRVFSPDVNEVLFAKRILEAMPDGSGVAMIDGKMQDDATWKQAKVIVDLARMIAKKDPDLAQAYGL	not soluble
MGSDKIHHHHHHMRKMRVLAIGNVFNPSGVSVHIINVLKELVKMGDEVFLYVPSFLVRRNYEVLKDLENAHISVHHSVYETKEAEEVGTLPYFIRSHTVYLRWNNLGEDRKYIDELKDIKPDVIYDMHEDSITLRLSYHIAKRLNKPLVKLLHDEPFRNSFGRGYRKFLGIKGLAYDTLMWMFYKFDKRAFLRSINDGILRGIAGVSKAPFYLSGIEEIAHSVRLKVYEVGNAFNKDIIYKYRRTRGKEDYAVFFARLVPQKGIKELPKIADLLDSKIVVFGKIFNENDRSILMSHPKIEYKGYRPIEEVYNTVAKAKVLIYPSHQDGFSLVVLDTLALGTSVVAYDIPAIRFVFSSLKPVRTVREYDIKEMASTANSILRMKDEEYESEHEDEKVKKFLELHSSWANVAKETHDFLSAFL	not soluble
MGSDKIHHHHHHMRLILYLGKGGVGKTTTSAATAVRAAELGYRTLVVSTDVAHSLADALDTPLGSLPTQITERLWGQEINVLDEVREHWGELRVYLSNLLRRRGVDEVAAEELAIIPGMEEVVSLLHIRRQAREGNFDVVIVDAAPTGETVRLLTMPETFQWYAARVMDWEPTTLKVARPLVKQLVPATDVFAKLERLTKGVEALRATLTDPQISSYRLVVNPERMVIKEAQRASTYLALFGYPVDGVVLNRVLPVDQVEGAFMQELARIQQGYRQMVYDLFRPLPIWESPYFARDLAGIEDLAMVGRRLFGDDDPVKVHFIGKTQEIVKQGDEYVLRLPLPHVEIGKVSMTKRGDELFIEIGNFRRDMLLPTTLAERPARRAYFRNGVLEVFFGPPETLSLKTDAQEESTPS	not soluble
MGSDKIHHHHHHMRLNELYSGKNAFIFQGVGIKYQKFLTLLDESQRELLKEYCSIVYKKIKLDLWGYLTRSLSGEYDDKFSDWVSIYTIDCVVYNTYIEDGIKPSVLLGYSMGLITALACGKAISFEEGLELLSMSYNYPKYTSRKDEGMGLVTGMTCSDIKKIIDKNELGDYAYIASENNEYCILVSGMKNRVDKLLSIALTEGALSAKDIDSPYAFHSKYALIGIEEYEKLVSRLCVCNLKIPIISSYDQRIIVDSCELKKELVKNVWGEMKWMASVEKAININNYNFFEVSLIDSISRFSRMINSNCKFFTYKSFMKIKNVQVQN	not soluble
MGSDKIHHHHHHMRLVVDGFGKYLGIENGLIVVKEKGKALRKVRPEDLKQVLIIGKAAISSDAIKLLLKNRVDVVFLDFNGEILGRLSHPLIGTAKTRREQYLAYGDKRGVHLAKEFIKAKMANQMAILTNLAKARKDSNPEVAESLLKAKKEIDACLNELDGVEAEMIDKVRERLLGIEGKASKHYWDAISLVIPEEYRFNGRRGIEIGSPRYAKDIVNAMLNYGYSILLAECVKAVELAGLDPYAGFLHVDVSGRSSLAIDLMENFRQQVVDRVVLRLISYRQIKPEDCEKRNMVCQLSDNARRLLLASLLERLDSKTQYRGRNLAYSSIILLHARDVVAFLRGERRYEGFVQKW	not soluble
MGSDKIHHHHHHMRMTTDKKQGKSRELDLFITDLNGNLRGKRLPASGLKKLRKEGLKLPLSVVGFDFWGADVLDNGLVFETGDSDGVCMPVSQEPIPVPWSEAPRDQMLAMMFNPDGTPFGADPRQVLNRMVDRFSAKGLTPVLATELEFYLMDAESESVQRPIPPALADGKGRRLANAEGYSVEEMDGFEAFFADIREACQGQGIGADTIIAEMGPGQFEVNLNHVADPLNAGDQAILFKRLVRGVSRRHGYAATFMAKPYVEESGNGFHTHFSLLDRDGNNVFDDGTEQGSDLLRHAIAGMMQLMPESMLVFAPHLNSYRRFMPGAHAPTHASWGYENRTVALRVPESPNLARRIEHRVAGADANPYLVLASILAGALHGMENALEPDAPVEGDAYAEESPRYPLPCEWQDAIARFEQSEILREYLGEEFVRVYAQAKRQERRRLNERISDVEYEAYLGLL	not soluble
MGSDKIHHHHHHMRPVEHAVIPCAGVGSRLNRGVPKSLTEIDGRTLLGRTLLALEHIPHVFLVVGFRKELVISEALRHRRNLIFVPNEYFDQTNTLYSVKLASRLIRDDFLMVDGDVVFDPSSFASLLGQLQTCDGPAIAYSRRTTEDGVKVRLDMSRGETTCTGFFRGEGAHEWTGIGRLNNRVISGNSLFVYESIERHMPAPAYLVDSMDIDTPADLEIARATYGRHDH	not soluble
MGSDKIHHHHHHMRSADSSPAYSPIGSLSSSHSFDSIPDQRMNKSLLSLACLILCGMPAIAQQTGPAERSGEPSLAERVFGLEQKQKKLKVYLGIQSFYDQPLVDDESHIGHFKVQELRMSAHGELNRHLSFDWRQRLNRAADGTSFADNLSNAIDIAGVDWHPNDKVSFFFGRQYARFGGIEYDMNPVEIYQYSDLVDYMTCYTSGVNFAWNFHPEQQLQLQVLNAYNNRFADRYHVTPDVATATSYPLLYSAQWNGTLLGGALHMRYAVSMAHQAQERNMWYFTAGNLFNPGKRINGYLDLTYSIEGLDDKGIMTARYGKGKTLTDVKYYALVSKWNFRIFDQVNLFLKGMYENGYAPAQYGESSHTRHSYGYMGGVEYYPTETNFRLFVTYIGRHYRYSATETESTNALRAGLIYQIPFL	not soluble
MGSDKIHHHHHHMRSSSKCSSVRFQFFVVELFMTTTQSAGEITGNVLFYNAPEPLNREQHAKLALVHKDKPYAFAAAGTAVPLTVSEFAPAALTFPVIFAGDDRVPLAVMGLNQQENLFIGADGSIEANVYIPAYIRRYPFVLANDDTQDRLIVCIDRGSDLLSEQGQTPLFDAKGEPTEYTQNCIKFCDDFEVERRRTDSFVQILKDNDLFELKKATFQPTDEVGAPVGEPVTVAEYFGVSEEKLNGLSAEKLKELQENGALAQIYAHLVSLLGWDRLINKTMMKQAEAANLN	not soluble
MGSDKIHHHHHHMRTDNKLSGIIAKKHSFSVPLDYQQSPSEQINLFVRELSSVEHQNKELPYLVFFQGGPGFGAVRPVANTGWIKRALTQYRVLLLDQRGTGLSTPVSAESLAHLTSQQQAEYLSHFRSDNIIRDAELIRAKLSPDRPWSILGQSFGGFCVLRYLSAAPQGLKAAYITGGIPSLERSADEVYQATYQRVLAKNQDFFSRFSDARELANRLASHISEYEVLLSSGERLTVEMLQLLGINLGMEQGPEGVYYLLEQALIDTAQGVKVNPLFLHQFGQFLDYNTNPLFAVLHESIYCQNSASNWAAHRVREQYSQFNYHLGKDLLFTGEMVYPWMFDQFSQLQPLKEAAELLAAKSDWPALYDLEQLKANTVPVSAAIYSEDMFVEMQYSLETTKDVGSLKYWLTSEYEHNGIRMDGERVLDKLIALNTGRELR	not soluble
MGSDKIHHHHHHMRTLKELERELQPRQHLWYFEYYTGNNVGLFMKMNRVIYSGQSDIQRIDIFENPDLGVVFALDGITMTTEKDEFMYHEMLAHVPMFLHPNPKKVLIIGGGDGGTLREVLKHDSVEKAILCEVDGLVIEAARKYLKQTSCGFDDPRAEIVIANGAEYVRKFKNEFDVIIIDSTDPTAGQGGHLFTEEFYQACYDALKEDGVFSAETEDPFYDIGWFKLAYRRISKVFPITRVYLGFMTTYPSGMWSYTFASKGIDPIKDFDPEKVRKFNKELKYYNEEVHVASFALPNFVKKELGLM	not soluble
